The text below walks through data of US20260286308A1, “COMPOSITION CONTAINING EXTRACELLULAR MATRIX AND MATRIX-BOUND VESICLES FOR PRODUCING EXTRACELLULAR MATRIX AND PREPARATION METHOD THEREFOR” (HLB CELL CO., LTD, priority 2023, published 2026).

Assay [1] deals with Human fibroblasts. Kind of assay: Total collagen content in cell culture of single-cultured human fibroblasts (Sirius Red kit, absorbance 530 nm). As to conditions: 10 ng/mL epidermal growth factor added alone (Table 3 No. 2); FIG. 17.
Description: To measure the human collagen content in the extracellular matrix present in a culture obtained according to each example described below, quantitative analysis was conducted by utilizing a commercially available Sirius Red kit (Chondrex, #9062). The analysis method followed the manufacturer's instructions. Specifically, Sirius Red solution was added to the culture, followed by incubation, and the precipitated collagen was then mixed with an acidic solution and quantitatively analyzed by measurement of absorbance at 530 nm.
Human fibroblasts were seeded at a density of 3×10^5 cells per 150-mm^2 culture dish. The cells were cultured in high-glucose Dulbecco's Modified Eagle's Medium (DMEM) supplemented with 10% fetal bovine serum and 1% penicillin for 7 days while a growth medium was exchanged every 2-3 days.
(§1) After being cultured according to Example 1.1.1, the cells were further cultured from day 8 using a serum-free/xeno-free culture medium [Dulbecco's Modified Eagle Medium: Ham's F-12 (1:1) supplemented with 100 (DMEM/F12) U/mL penicillin/streptomycin, 2 mM L-alanyl-L-glutamine, 5 μg/L selenium, 50 M ascorbate-2-phosphate, 10 mg/L insulin, 1 μM hydrocortisone, 0.02 nM triiodothyronine, 1 μM isoprenaline, and 10 μg/L epidermal growth factor] while the medium was exchanged at intervals of 2 to 3 days. […] The cell culture after collection was analyzed according to Example 3. […]
In assay [2] the test system is Human fibroblasts. Here is the method:
The analysis method followed the manufacturer's instructions.
Culture media each lacking an individual factor were prepared, and then culture was performed according to Example 1.1.
Then, culture was performed according to Example 1.1.

Assay [3] has as its system Human fibroblasts. Nature of the assay: Laminin content in cell culture of single-cultured human fibroblasts (anti-human laminin antibody plate kit, absorbance 450 nm). As to conditions: 10 ng/mL epidermal growth factor added alone (Table 3 No. 2); FIG. 16.
Description: To measure the amount of human laminin component in the extracellular matrix present in a culture obtained according to each example described below, quantitative analysis was conducted by using a commercially available analysis kit (TakaRa, MK107). The analysis method followed the manufacturer's instructions. Specifically, the culture was added onto a 96-well plate coated with an anti-human laminin antibody, followed by incubation. Thereafter, residues were washed off, and a chromogenic enzyme-conjugated specific antibody was added, followed by incubation. Then, quantitative analysis was conducted by measurement of the absorbance at 450 nm.
Human fibroblasts were seeded at a density of 3×10^5 cells per 150-mm^2 culture dish. […]
as §1

B1: epidermal growth factor: growth factor / ErbB signaling factor added to the serum-free/xeno-free culture medium (protein, UniProt P01133 23-1207, looked up)
Pro-epidermal growth factor: PQHWSCPEGTLAGNGNSTCVGPAPFLIFSHGNSIFRIDTEGTNYEQLVVDAGVSVIMDFHYNEKRIYWVDLERQLLQRVFLNGSRQERVCNIEKNVSGMAINWINEEVIWSNQQEGIITVTDMKGNNSHILLSALKYPANVAVDPVERFIFWSSEVAGSLYRADLDGVGVKALLETSEKITAVSLDVLDKRLFWIQYNREGSNSLICSCDYDGGSVHISKHPTQHNLFAMSLFGDRIFYSTWKMKTIWIANKHTGKDMVRINLHSSFVPLGELKVVHPLAQPKAEDDTWEPEQKLCKLRKGNCSSTVCGQDLQSHLCMCAEGYALSRDRKYCEDVNECAFWNHGCTLGCKNTPGSYYCTCPVGFVLLPDGKRCHQLVSCPRNVSECSHDCVLTSEGPLCFCPEGSVLERDGKTCSGCSSPDNGGCSQLCVPLSPVSWECDCFPGYDLQLDEKSCAASGPQPFLLFANSQDIRHMHFDGTDYGTLLSQQMGMVYALDHDPVENKIYFAHTALKWIERANMDGSQRERLIEEGVDVPEGLAVDWIGRRFYWTDRGKSLIGRSDLNGKRSKIITKENISQPRGIAVHPMAKRLFWTDTGINPRIESSSLQGLGRLVIASSDLIWPSGITIDFLTDKLYWCDAKQSVIEMANLDGSKRRRLTQNDVGHPFAVAVFEDYVWFSDWAMPSVMRVNKRTGKDRVRLQGSMLKPSSLVVVHPLAKPGADPCLYQNGGCEHICKKRLGTAWCSCREGFMKASDGKTCLALDGHQLLAGGEVDLKNQVTPLDILSKTRVSEDNITESQHMLVAEIMVSDQDDCAPVGCSMYARCISEGEDATCQCLKGFAGDGKLCSDIDECEMGVPVCPPASSKCINTEGGYVCRCSEGYQGDGIHCLDIDECQLGEHSCGENASCTNTEGGYTCMCAGRLSEPGLICPDSTPPPHLREDDHHYSVRNSDSECPLSHDGYCLHDGVCMYIEALDKYACNCVVGYIGERCQYRDLKWWELRHAGHGQQQKVIVVAVCVVVLVMLLLLSLWGAHYYRTQKLLSKNPKNPYEESSRDVRSRRPADTEDGMSSCPQPWFVVIKEHQDLKNGGQPVAGEDGQAADGSMQPTSWRQEPQLCGMGTEQGCWIPVSSDKGSCPQVMERSFHMPSYGTQTLEGGVEKPHSLLSANPLWQQRALDPPHQMELTQ
modifications: Pro-epidermal growth factor
On to B1, for which the total collagen concentration in assay [1] came to 56.94 µg/mL. Further, the “amount of extracellular matrix produced, compared among growth factor groups” value in assay [2] (10 ng/mL epidermal growth factor added alone, compared with FGF-2, KGF and combinations (Table 3)) is given as “highest amount”. Further, the “amount of extracellular matrix produced” value in assay [2] (factor individually removed from serum-free/xeno-free culture medium (Table 1), compared with medium containing all factors, FIGS. 8 and 9) is given as “significantly reduced”. Also, in assay [3], the laminin concentration is 2.68 µg/mL.
